How the values were obtained:
Details in all cases: tags: TnT T7 reticulocyte lysate from pCMX-hRORα1
hRORα1 (RORA isoform 1) [1] = target: T1, hRORα1 (RORA isoform 1) (Homo sapiens, UniProt P35398 P35398:1-523); assay: competition; unlabelled competitor 10-100x
T1 sequence: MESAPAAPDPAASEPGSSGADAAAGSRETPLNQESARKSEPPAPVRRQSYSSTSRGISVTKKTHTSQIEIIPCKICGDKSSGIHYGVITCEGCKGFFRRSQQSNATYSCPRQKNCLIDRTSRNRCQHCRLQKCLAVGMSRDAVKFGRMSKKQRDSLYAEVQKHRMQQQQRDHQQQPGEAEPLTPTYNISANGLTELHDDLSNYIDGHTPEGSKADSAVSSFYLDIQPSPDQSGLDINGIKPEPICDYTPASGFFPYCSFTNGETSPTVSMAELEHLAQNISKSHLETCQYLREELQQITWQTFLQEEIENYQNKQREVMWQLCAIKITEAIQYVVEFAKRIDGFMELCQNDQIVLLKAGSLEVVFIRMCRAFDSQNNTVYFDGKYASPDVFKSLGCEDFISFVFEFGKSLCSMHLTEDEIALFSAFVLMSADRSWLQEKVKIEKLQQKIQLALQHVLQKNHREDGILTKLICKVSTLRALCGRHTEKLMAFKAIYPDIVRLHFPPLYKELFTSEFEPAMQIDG

hRORα1 (RORA isoform 1) [2] = target: T1, hRORα1 (RORA isoform 1); assay: competition; 10-100x excess does not compete
Protocol: (§1) During the competition experiments, increasing concentrations of nonlabelled double-stranded oligo-nucleotides (molar excess of 10 to 100 fold) were added to the mixtures and incubated for 15 min at room temperature before the addition of the radioactive probes. After addition of the radioactive probes, the reticulocyte lysates were added to the mixture and incubated for 15 min at room temperature before the separation of the protein/DNA complexes by electrophoresis on a polyacrylamide gel (4%) in a 0.25× Tris-borate-EDTA buffer at room temperature (50).
In FIG. 7, the −198/+24 fragment of the promoter of the human gene for apo C-III was amplified by PCR with the aid of the primers 82 and 512 (Table 1) previously phosphoryiated at the 5' end by poly-nucleotide kinase in the presence of [γ-^32P]ATP. This probe was incubated in the presence of reticulocyte lysate (TNT-T7, Promega) programmed to express the hRORα1 receptor according to the protocol defined by the manufacturer or in the presence of control lysate. The DNA/protein complexes were then separated on a non denaturing polyacrylamide gel. After drying, the gel is subjected to autoradiography. The first lane of the gel corresponds to the migration of the probe alone. The second lane corresponds to the migration of the probe incubated in the presence of the control lysate. […]

hRORα1 (RORA isoform 1) [3] = target: T1, hRORα1 (RORA isoform 1); assay: competition; unlabelled competitor 10-100x; remark: listed apart in the source
Protocol: as §1
In this figure, fragment −90/−64 of the promoter of the human gene for apo C-III was phosphorylated at the 5' ends with polynucleotide kinase in the presence of [γ-^32P]ATP. This probe was incubated in the presence of reticuloycte lysate ("TNT-T7", Promega) programmed to express the hRORα1 receptor according to the protocol defined by the manufacturer or in the presence of control lysate. The DNA/protein complexes were then separated on nondenaturing polyacrylamide gel. After drying, the gel is subjected to autoradiography. The first lane of the gel corresponds to the migration of the probe incubated in the presence of control lysate. The other lanes correspond to the migration of the probe incubated in the presence of lysate programmed to express hRORα1. […]

B1: rAITaTaWT (-36/-12) (dsDNA)
DNA 1: GATCCACACATATATAGGTCAGGGAAGAAGA
DNA 2: GATCTCTTCTTCCCTGACCTATATATGTGTG
binding result (hRORα1 (RORA isoform 1) [1]): binds

B2: hCIIITaTaKO (-33/-10) (dsDNA)
DNA 1: GATCGATATAAAACAGGCAGGAACCCTC
DNA 2: GATCGAGGGTTCCTGCCTGTTTTATATC
binding result (hRORα1 (RORA isoform 1) [2]): no binding

B3: RORECons (dsDNA)
DNA 1: GATCTTGACCTACATTCTAAGCTG
DNA 2: GATCCAGCTTAGAATGTAGGTCAA
binding result (hRORα1 (RORA isoform 1) [3]): binds

From patent US6998254, “Use of ROR for receptors for screening substances useful for the treatment of atherosclerosis” (Merck Patent Gesellschaft)
